In patent US10800847:

Experiments:
Experiment in all cases: Luminex single-antigen regular beads (#7), IVIg 1:4
[1] = molecular target: HLA-A*3303 (A33) single antigen on beads (human)
[2] = molecular target: HLA-A*3301 (A33) single antigen on beads (human)
[3] = molecular target: HLA-A*6801 (A68) single antigen on beads (human)
[4] = molecular target: HLA-A*3201 (A32) single antigen on beads (human)
[5] = molecular target: HLA-A*3101 (A31) single antigen on beads (human)
[6] = molecular target: HLA-A*6601 (A66) single antigen on beads (human)
[7] = molecular target: HLA-A*3402 (A34) single antigen on beads (human)

MFI [1]: 0 MFI | MFI [2]: 185 MFI | MFI [3]: 0 MFI | MFI [4]: 255 MFI | MFI [5]: 0 MFI | MFI [6]: 93 MFI | MFI [7]: 0 MFI
Substance: IVIg Sandoglobulin (Novartis, Basel, Switzerland) (antibody)
